Experimental data: paper PMC3988174

What was measured:
[1] = target: atToc159 G-domain bait (Arabidopsis thaliana) (UniProt O81283); test: two-hybrid; pairwise split-ubiquitin yeast two-hybrid of isolated NubG-preys with Toc159G, Toc132G or Toc132AG bait in NMY51; growth on SD-LWHA (3-AT) and quantitative β-Gal assay, activity relative to a reference bait set to 100%
[2] = target: atToc132 G-domain bait (Arabidopsis thaliana) (UniProt Q9SLF3); test: as above
Sequence of atToc132 G-domain bait (Arabidopsis thaliana) (Q9SLF3 456-794): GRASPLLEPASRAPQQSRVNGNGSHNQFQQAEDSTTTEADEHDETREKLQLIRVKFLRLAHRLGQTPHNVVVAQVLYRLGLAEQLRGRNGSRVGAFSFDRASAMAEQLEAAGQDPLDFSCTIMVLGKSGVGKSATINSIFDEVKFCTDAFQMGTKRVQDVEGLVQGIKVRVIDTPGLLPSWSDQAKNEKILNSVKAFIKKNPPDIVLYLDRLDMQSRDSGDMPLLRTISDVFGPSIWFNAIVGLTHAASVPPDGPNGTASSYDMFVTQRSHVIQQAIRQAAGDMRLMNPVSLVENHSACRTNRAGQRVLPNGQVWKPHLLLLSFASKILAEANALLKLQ

Sequence of atToc159 G-domain bait (Arabidopsis thaliana) (O81283 728-1092): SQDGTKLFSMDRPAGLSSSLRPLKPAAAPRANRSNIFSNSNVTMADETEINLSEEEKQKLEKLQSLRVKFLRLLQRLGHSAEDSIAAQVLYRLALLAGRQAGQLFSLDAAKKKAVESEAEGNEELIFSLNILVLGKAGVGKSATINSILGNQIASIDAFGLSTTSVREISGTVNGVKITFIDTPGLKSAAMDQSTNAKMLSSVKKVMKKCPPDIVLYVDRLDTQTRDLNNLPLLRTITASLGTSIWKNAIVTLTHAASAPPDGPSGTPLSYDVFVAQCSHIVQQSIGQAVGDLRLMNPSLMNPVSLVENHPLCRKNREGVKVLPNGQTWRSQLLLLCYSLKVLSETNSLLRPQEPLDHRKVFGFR

Binder	% increase in strength of interaction (β-Gal) with Toc159G against Toc132G [1]	also measured
Light-Harvesting Chlorophyll-Protein Complex I Subunit A4 (natural protein) MATVTTHASASIFRPCTSKPRFLTGSSGRLNRDLSFTSIGSSAKTSSFKVEAKKGEWLPGLASPDYLTGSLAGDNGFDPLGLAEDPENLKWFVQAELVNGRWAMLGVAGMLLPEVFTKIGIINVPEWYDAGKEQYFASSSTLFVIEFILFHYVEIRRWQDIKNPGSVNQDPIFKQYSLPKGEVGYPGGIFNPLNFAPTQEAKEKELANGRLAMLAFLGFVVQHNVTGKGPFENLLQHLSDPWHNTIVQTFN	–	% decrease in strength of interaction (β-Gal) with Toc159G against Toc132G [1]: -38.5%
Protochlorophyllide oxidoreductase B (natural protein) MALQAASLVSSAFSVRKDAKLNASSSSFKDSSLFGASITDQIKSEHGSSSLRFKREQSLRNLAIRAQTAATSSPTVTKSVDGKKTLRKGNVVVTGASSGLGLATAKALAETGKWNVIMACRDFLKAERAAKSVGMPKDSYTVMHLDLASLDSVRQFVDNFRRTETPLDVLVCNAAVYFPTAKEPTYSAEGFELSVATNHLGHFLLARLLLDDLKKSDYPSKRLIIVGSITGNTNTLAGNVPPKANLGDLRGLAGGLNGLNSSAMIDGGDFDGAKAYKDSKVCNMLTMQEFHRRFHEETGVTFASLYPGCIASTGLFREHIPLFRALFPPFQKYITKGYVSETESGKRLAQVVSDPSLTKSGVYWSWNNASASFENQLSEEASDVEKARKVWEISEKLVGLA	40.5%	–
Photosystem II subunit X (natural protein) MASTSAMSLVTPLNQTRSSPFLKPLPLKPSKALVATGGRAQRLQVKALKMDKALTGISAAALTASMVIPEIAEAAGSGISPSLKNFLLSIASGGLVLTVIIGVVVGVSNFDPVKRT	24%	–
Ferredoxin-thioredoxin reductase subunit A (natural protein) MNLQAVSCSFGFLSSPLGVTPRTSFRRFVIRAKTEPSEKSVEIMRKFSEQYARRSGTYFCVDKGVTSVVIKGLAEHKDSYGAPLCPCRHYDDKAAEVGQGFWNCPCVPMRERKECHCMLFLTPDNDFAGKDQTITSDEIKETTANM	–	% increase in strength of interaction (β-Gal) with 132G against 159G [2]: 45.2%
